The numbers were not newly measured in article PMC12384152, which cites them from elsewhere.

The target in this data set is β-spectrin repeats 14-15 (Homo sapiens) (UniProt P11277).
UniProt P11277, sequence (P11277 1691-1907): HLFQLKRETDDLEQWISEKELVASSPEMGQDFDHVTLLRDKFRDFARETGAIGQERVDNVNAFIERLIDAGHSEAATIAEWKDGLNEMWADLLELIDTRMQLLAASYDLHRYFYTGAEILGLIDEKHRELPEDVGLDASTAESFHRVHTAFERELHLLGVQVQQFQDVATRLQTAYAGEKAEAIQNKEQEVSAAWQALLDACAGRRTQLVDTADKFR

Consider ankyrin-1 ZU5 (from UniProt P16157), for which the Kd is 15 nM.
